Measurements taken from patent US20090130652A1 (CRUCELL HOLLAND B V, published 2009).

B1: CR4354L4261 (antibody, human IgG1, lambda, V domains shown)
VH: QVQLVQSGAEVRKPGASVKVSCKASGYTFTHYYMHWVRQAPGQGLEWMGIINPSGGSTTYAQKLQGRVTMTRDTSTSTVYMELSSLRSEDTAVYYCARDWGSNYVWGSYPKYWGQGTLVTVSS
VL: TQAVLTQPSSASGTPGQRVTISCSGSSPNIGSNNVNWYQQLPGTAPKLLIYSNNQRPSGVPGRFSGSKSGTSASLAISGLQSEDEADYYCAAWDDGLSGNYVFGAGTQLTVLS
B2: CR4354L4335 (antibody, human IgG1, lambda, V domains shown)
VH: B1 VH
VL: TQSVLTQPPSTSGTPGQRVTISCSGSDSNIGSNTVNWYQQLPGMAPKLLIYRNNQRPSGVPDRFSGSKSGTSASLAISGLQSEDEADYFCASWDANLGGPLFGGGTKVTVLG
B3: CR4354L4328 (antibody, human IgG1, lambda, V domains shown)
VH: B1 VH
VL: TQAVLTQPSSVSGTPGQRVTISCSGSSSNIGSNTVNWYQQLPGTAPKLLIYGNNNRPSGVPARFSGSRSGTSASLAISGLRSEDEADYYCAAWDDSLNGPVFGGGTKLTVLG

Biological target: WNV strain 385-99 (infectious, as used in the virus neutralization assay)
Test: cell-based or functional assay

Row | Binder | Potency (%) in 66% neutralization concentration, VNA [%]
1 | B1 | 106
2 | B2 | 60
3 | B3 | 286
